Consider 13 molecules from PMC6555819, “Comprehensive study of nuclear receptor DNA binding provides a revised framework for understanding receptor specificity”.

First the molecules themselves.
B1: NRC3_wobSeed46_DR1_A25C_o1 (dsDNA)
DNA 1: GCTTACCAAGGTGAAAGGTCGTTGCTGCACGCCTTGGCGATTGACAGCGTAGAATGAAGG
DNA 2: CCTTCATTCTACGCTGTCAATCGCCAAGGCGTGCAGCAACGACCTTTCACCTTGGTAAGC
B2: NRC3_wobSeed46_DR1_A5G_o1 (dsDNA)
DNA 1: GCTTGCCAAGGTGAAAGGTCGTTGATGCACGCCTTGGCGATTGACAGCGTAGAATGAAGG
DNA 2: CCTTCATTCTACGCTGTCAATCGCCAAGGCGTGCATCAACGACCTTTCACCTTGGCAAGC
B3: NRC3_wobSeed15_DR0_G23A_o1 (dsDNA)
DNA 1: GCCGAACTAGGTCAAGGACAGTAAATCTCCGCACGCGCGATTGACAGCGTAGAATGAAGG
DNA 2: CCTTCATTCTACGCTGTCAATCGCGCGTGCGGAGATTTACTGTCCTTGACCTAGTTCGGC
B4: NRC3_wobSeed15_DR0_A18C_o1 (dsDNA)
DNA 1: GCCGAACTAGGTCAAGGCCAGTGAATCTCCGCACGCGCGATTGACAGCGTAGAATGAAGG
DNA 2: CCTTCATTCTACGCTGTCAATCGCGCGTGCGGAGATTCACTGGCCTTGACCTAGTTCGGC
B5: NRC3_wobSeed37_DR1_A14G_o1 (dsDNA)
DNA 1: GCCGTCCAAGGTCGAAGGTCAGTGAAGAGATGACGGGCGATTGACAGCGTAGAATGAAGG
DNA 2: CCTTCATTCTACGCTGTCAATCGCCCGTCATCTCTTCACTGACCTTCGACCTTGGACGGC
B6: NRC3_wobSeed88_DR3_G20C_o1 (dsDNA)
DNA 1: GCTAGCCTAGGTCATGCGGCCCAGTATAGTGTCGGCGCGATTGACAGCGTAGAATGAAGG
DNA 2: CCTTCATTCTACGCTGTCAATCGCGCCGACACTATACTGGGCCGCATGACCTAGGCTAGC
B7: NRC3_wobSeed50_DR2_G11T_o1 (dsDNA)
DNA 1: GCCCTAGTTGTTCAGGAGGTCACACACCGGATATGAGCGATTGACAGCGTAGAATGAAGG
DNA 2: CCTTCATTCTACGCTGTCAATCGCTCATATCCGGTGTGTGACCTCCTGAACAACTAGGGC
B8: NRC3_wobSeed1_DR0_A20T_o1 (dsDNA)
DNA 1: GCCAAACTAGGTCAAGGTCTAAGTCGGTTTGTGCCAGCGATTGACAGCGTAGAATGAAGG
DNA 2: CCTTCATTCTACGCTGTCAATCGCTGGCACAAACCGACTTAGACCTTGACCTAGTTTGGC
B9: NRC3_wobSeed134_DR5_T23C_o1 (dsDNA)
DNA 1: GCGCTGCTAGGTCAACTGATGGCCAGCTAAAGCTCGGCGATTGACAGCGTAGAATGAAGG
DNA 2: CCTTCATTCTACGCTGTCAATCGCCGAGCTTTAGCTGGCCATCAGTTGACCTAGCAGCGC
B10: NRC3_wobSeed82_DR3_A18C_o1 (dsDNA)
DNA 1: GCATCGAAAGGTCGACGCGGTGAGTATACACCGTTTGCGATTGACAGCGTAGAATGAAGG
DNA 2: CCTTCATTCTACGCTGTCAATCGCAAACGGTGTATACTCACCGCGTCGACCTTTCGATGC
B11: NRC3_wobSeed44_DR1_A5T_o1 (dsDNA)
DNA 1: GCTGTATGAGGTTAAAGATCAGGGAACGTGGCGTCGGCGATTGACAGCGTAGAATGAAGG
DNA 2: CCTTCATTCTACGCTGTCAATCGCCGACGCCACGTTCCCTGATCTTTAACCTCATACAGC
B12: NRC3_wobSeed87_DR3_A23C_o1 (dsDNA)
DNA 1: GCCGAACTAGGTCATCCAGGACCGTGAATACATTGAGCGATTGACAGCGTAGAATGAAGG
DNA 2: CCTTCATTCTACGCTGTCAATCGCTCAATGTATTCACGGTCCTGGATGACCTAGTTCGGC
B13: NRC3_wobSeed87_DR3_T15C_o1 (dsDNA)
DNA 1: GCCGAACTAGGTCACCCAGGACAGTGAATACATTGAGCGATTGACAGCGTAGAATGAAGG
DNA 2: CCTTCATTCTACGCTGTCAATCGCTCAATGTATTCACTGTCCTGGGTGACCTAGTTCGGC

The target of the series is FXR:RXRa (Homo sapiens, UniProt Q96RI1;P19793 full;full). Put plainly: no ligand; PBM; 270 nM : 90 nM RXRa; PBS pH 7.4, 2% milk, 0.02% Triton X-100, 1 mM DTT, BSA, 0.4 mg/ml salmon testes DNA. As to conditions: tags: His kept;His cleaved; copies: 1;1; label: surface-attached array probe. A digest of the protocol: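 Scanned fluorescence from custom Agilent 4×180K protein-binding microarrays was regression-normalized. Binding z-scores use random background probes as reference. Ligand-free nuclear receptor dimers were incubated on the arrays for 1 h and detected with antibodies against each partner (one per run).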
Sequence of FXR:RXRa (Q96RI1 whole entry, chain 1 of 2): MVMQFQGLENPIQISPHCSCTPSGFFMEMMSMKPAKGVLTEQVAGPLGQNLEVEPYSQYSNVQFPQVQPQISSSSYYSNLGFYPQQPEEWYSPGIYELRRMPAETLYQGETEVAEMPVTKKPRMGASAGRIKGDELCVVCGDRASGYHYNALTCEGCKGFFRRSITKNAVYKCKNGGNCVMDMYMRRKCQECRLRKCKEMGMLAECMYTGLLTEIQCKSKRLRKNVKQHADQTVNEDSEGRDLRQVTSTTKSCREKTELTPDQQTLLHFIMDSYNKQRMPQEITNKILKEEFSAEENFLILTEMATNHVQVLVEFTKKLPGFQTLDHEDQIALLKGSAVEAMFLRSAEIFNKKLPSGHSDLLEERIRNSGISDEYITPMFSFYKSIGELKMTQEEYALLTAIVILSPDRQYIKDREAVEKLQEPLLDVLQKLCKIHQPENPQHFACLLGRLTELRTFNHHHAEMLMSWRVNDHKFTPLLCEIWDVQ
Sequence of FXR:RXRa (P19793 whole entry, chain 2 of 2): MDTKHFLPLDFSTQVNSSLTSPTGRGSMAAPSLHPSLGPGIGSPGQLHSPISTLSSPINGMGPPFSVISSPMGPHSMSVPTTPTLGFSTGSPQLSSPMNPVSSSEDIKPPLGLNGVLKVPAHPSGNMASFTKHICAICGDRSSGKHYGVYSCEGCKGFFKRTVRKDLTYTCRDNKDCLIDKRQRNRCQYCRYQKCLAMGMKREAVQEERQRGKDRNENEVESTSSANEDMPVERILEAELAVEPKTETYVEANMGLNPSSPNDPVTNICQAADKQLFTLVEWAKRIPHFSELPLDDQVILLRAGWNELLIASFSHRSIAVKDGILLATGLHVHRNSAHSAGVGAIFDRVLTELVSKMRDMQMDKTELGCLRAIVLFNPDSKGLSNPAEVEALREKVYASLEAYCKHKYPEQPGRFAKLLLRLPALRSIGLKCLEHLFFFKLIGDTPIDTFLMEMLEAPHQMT
On to B1, for which the binding signal is 3.81 PBM z-score against 500 random probes.

Consider B2, for which the binding signal was 3.55 PBM z-score against 500 random probes. Then B3, with 3.73 PBM z-score against 500 random probes; and B4, with 3.52 PBM z-score against 500 random probes. The figure for B5 is 3.76 PBM z-score against 500 random probes; for B6 it is 3.84 PBM z-score against 500 random probes. Then B7, with 3.71 PBM z-score against 500 random probes. Consider B8, for which the binding signal is 3.61 PBM z-score against 500 random probes. Then B9, with 3.9 PBM z-score against 500 random probes.

Take B10: the binding signal is 3.87 PBM z-score against 500 random probes.

Consider B11, for which the binding signal is 3.64 PBM z-score against 500 random probes. The figure for B12 is 3.93 PBM z-score against 500 random probes. Then B13, with 3.58 PBM z-score against 500 random probes.
